According to patent US20210054048A1:

Molecular target: alcohol dehydrogenase (ADH)
Experiment: cell-based or functional assay

- decrease in ADH aggregation (optical density at 360 nm, 48° C., 2 h): 61%
Substance: CryS96 (αB-crystallin peptide fused with ELP S96)
